Source: patent US20110135647A1 (ONCOTHERAPY SCIENCE, published 2011)
Values belong to the binder of their own block, whether it stands above or below them.

Key:
[1] = target: T1, myc-tagged p97 (p97/VCP-myc-6×His) (human, UniProt P55072 1-806); assay: co-immunoprecipitation with HA-tag antibody from co-transfected cells
T1 construct: Expressed in COS-7 cells; also called myc-p97; p97/VCP-myc-His; not shown: C-terminal myc-6×His tag of pcDNA3.1-myc-His

[2] = target: T2, GST-tagged PP1α (GST-PP1α) (human, UniProt P62136 1-330); assay: anti-HA immunoprecipitation from co-transfected COS-7 cells, anti-GST blot
T2 construct: also called GST-fused PP1α; not shown: glutathione S-transferase (GST) tag of the pCAGGS-nGST vector, N-terminal
T2 sequence (P62136 whole entry, the tested form may be a part): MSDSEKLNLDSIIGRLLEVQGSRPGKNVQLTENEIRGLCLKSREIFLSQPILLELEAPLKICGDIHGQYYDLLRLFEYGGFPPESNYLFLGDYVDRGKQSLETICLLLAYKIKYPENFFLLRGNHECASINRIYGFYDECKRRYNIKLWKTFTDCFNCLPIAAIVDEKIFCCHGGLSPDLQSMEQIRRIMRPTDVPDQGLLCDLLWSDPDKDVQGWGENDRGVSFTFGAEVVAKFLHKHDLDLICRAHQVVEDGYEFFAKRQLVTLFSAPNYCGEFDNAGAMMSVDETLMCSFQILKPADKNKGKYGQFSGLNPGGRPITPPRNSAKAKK

[3] = target: T3, HA-tagged A7322 (A7322-HA) (human, UniProt Q5TH69 1-2177); assay: co-immunoprecipitation from co-transfected COS-7 cells, anti-FLAG IP / anti-HA blot and the reverse
T3 construct: Expressed in COS-7 cells for the ERα co-immunoprecipitation; not shown: HA tag
T3 sequence (Q5TH69 whole entry): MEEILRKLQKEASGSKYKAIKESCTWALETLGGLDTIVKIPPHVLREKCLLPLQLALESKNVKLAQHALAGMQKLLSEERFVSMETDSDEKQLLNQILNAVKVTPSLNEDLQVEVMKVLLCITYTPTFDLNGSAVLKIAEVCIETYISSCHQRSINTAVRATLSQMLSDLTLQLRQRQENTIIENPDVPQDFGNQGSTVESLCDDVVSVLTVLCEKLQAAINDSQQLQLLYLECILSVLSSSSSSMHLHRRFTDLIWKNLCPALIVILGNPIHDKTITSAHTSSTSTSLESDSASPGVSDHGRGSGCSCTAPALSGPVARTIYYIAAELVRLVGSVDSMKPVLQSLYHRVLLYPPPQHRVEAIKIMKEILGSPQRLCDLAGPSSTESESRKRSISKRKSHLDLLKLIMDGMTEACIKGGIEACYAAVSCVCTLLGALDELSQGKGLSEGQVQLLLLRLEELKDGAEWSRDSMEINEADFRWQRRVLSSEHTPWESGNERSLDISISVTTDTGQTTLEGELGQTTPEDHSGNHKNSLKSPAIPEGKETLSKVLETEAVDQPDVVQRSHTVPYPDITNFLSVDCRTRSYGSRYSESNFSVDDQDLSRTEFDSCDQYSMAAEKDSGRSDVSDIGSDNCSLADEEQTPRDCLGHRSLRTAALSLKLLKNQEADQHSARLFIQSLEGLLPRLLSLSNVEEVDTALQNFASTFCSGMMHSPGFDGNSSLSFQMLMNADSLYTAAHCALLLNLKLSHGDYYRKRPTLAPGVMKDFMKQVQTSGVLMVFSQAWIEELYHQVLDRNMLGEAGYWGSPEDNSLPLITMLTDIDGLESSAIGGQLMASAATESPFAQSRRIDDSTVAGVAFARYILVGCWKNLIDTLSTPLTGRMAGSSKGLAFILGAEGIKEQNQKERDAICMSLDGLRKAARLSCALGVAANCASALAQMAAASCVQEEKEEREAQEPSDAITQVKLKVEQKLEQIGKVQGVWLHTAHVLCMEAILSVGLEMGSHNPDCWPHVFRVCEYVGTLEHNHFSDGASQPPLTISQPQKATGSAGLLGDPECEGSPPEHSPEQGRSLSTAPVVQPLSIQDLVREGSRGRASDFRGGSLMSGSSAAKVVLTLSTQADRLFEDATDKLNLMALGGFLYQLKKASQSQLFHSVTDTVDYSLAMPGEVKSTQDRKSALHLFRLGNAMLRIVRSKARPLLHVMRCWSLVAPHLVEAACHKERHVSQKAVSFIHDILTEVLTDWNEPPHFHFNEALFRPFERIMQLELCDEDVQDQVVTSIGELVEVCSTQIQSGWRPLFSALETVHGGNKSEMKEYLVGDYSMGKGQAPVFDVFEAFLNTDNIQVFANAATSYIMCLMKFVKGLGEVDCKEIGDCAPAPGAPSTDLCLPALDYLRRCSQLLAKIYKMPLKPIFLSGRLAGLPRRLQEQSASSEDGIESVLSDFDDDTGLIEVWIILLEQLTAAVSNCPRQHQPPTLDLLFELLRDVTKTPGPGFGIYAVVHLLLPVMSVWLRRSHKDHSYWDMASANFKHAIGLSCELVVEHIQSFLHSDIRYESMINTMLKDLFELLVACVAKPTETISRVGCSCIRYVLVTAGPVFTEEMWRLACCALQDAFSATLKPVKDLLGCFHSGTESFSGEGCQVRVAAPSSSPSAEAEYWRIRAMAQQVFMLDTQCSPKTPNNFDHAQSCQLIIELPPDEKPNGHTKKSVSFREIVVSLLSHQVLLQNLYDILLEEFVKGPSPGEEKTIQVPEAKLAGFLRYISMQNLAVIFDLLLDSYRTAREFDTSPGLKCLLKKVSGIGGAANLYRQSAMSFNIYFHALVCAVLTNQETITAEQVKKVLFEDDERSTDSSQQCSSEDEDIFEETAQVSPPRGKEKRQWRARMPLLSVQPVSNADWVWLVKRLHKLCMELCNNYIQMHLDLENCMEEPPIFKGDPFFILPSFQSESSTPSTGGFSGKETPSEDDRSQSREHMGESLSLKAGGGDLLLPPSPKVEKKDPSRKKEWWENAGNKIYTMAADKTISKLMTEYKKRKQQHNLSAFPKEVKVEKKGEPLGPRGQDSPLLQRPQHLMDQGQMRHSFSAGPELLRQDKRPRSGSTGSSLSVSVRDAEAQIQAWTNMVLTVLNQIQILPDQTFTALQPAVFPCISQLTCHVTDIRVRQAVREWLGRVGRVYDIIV

T1 sequence (P55072 whole entry): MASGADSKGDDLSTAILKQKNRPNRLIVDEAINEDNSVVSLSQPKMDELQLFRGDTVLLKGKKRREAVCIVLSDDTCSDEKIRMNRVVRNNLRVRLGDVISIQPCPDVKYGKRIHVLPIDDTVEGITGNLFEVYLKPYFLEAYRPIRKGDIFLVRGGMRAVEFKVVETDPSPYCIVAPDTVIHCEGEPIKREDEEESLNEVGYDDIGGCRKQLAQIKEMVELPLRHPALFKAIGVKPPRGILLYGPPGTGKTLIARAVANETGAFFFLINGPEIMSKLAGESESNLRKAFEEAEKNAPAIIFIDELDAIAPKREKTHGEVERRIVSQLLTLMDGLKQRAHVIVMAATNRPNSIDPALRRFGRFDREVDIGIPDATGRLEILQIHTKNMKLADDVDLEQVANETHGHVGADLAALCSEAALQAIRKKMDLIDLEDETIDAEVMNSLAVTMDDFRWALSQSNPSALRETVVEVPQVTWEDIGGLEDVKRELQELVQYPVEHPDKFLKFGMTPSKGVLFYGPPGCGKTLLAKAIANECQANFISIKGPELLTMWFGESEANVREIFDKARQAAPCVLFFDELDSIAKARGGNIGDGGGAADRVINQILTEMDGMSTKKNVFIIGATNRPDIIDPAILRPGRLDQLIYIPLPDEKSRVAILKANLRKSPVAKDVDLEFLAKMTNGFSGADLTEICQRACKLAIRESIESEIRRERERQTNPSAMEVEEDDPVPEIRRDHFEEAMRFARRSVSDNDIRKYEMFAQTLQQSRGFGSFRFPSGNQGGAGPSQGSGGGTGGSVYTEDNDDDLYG

binding result [1]: no binding
binding result [2]: binds
B1: HA-tagged PBK/TOPK (HA-PBK/TOPK), wild type (enzyme)
chain: MEGISNFKTPSKLSEKKKSVLCSTPTINIPASPFMQKLGFGTGVNVYLMKRSPRGLSHSPWAVKKINPICNDHYRSVYQKRLMDEAKILKSLHHPNIVGYRAFTEANDGSLCLAMEYGGEKSLNDLIEERYKASQDPFPAAIILKVALNMARGLKYLHQEKKLLHGDIKSSNVVIKGDFETIKICDVGVSLPLDENMTVTDPEACYIGTEPWKPKEAVEENGVITDKADIFAFGLTLWEMMTLSIPHINLSNDDDDEDKTFDESDFDDEAYYAALGTRPPINMEELDESYQKVIELFSVCTNEDPKDRPSAAHIVEALETDV
notes: Expressed in COS-7 or T47D cells; also called HA-tagged TOPK; WT; not shown: N-terminal HA tag (pCAGGSnHA)

binding result [3]: no binding
B2: FLAG-tagged ERα (ERα-FLAG) (receptor, UniProt P03372 1-595, looked up)
chain: MTMTLHTKASGMALLHQIQGNELEPLNRPQLKIPLERPLGEVYLDSSKPAVYNYPEGAAYEFNAAAAANAQVYGQTGLPYGPGSEAAAFGSNGLGGFPPLNSVSPSPLMLLHPPPQLSPFLQPHGQQVPYYLENEPSGYTVREAGPPAFYRPNSDNRRQGGRERLASTNDKGSMAMESAKETRYCAVCNDYASGYHYGVWSCEGCKAFFKRSIQGHNDYMCPATNQCTIDKNRRKSCQACRLRKCYEVGMMKGGIRKDRRGGRMLKHKRQRDDGEGRGEVGSAGDMRAANLWPSPLMIKRSKKNSLALSLTADQMVSALLDAEPPILYSEYDPTRPFSEASMMGLLTNLADRELVHMINWAKRVPGFVDLTLHDQVHLLECAWLEILMIGLVWRSMEHPGKLLFAPNLLLDRNQGKCVEGMVEIFDMLLATSSRFRMMNLQGEEFVCLKSIILLNSGVYTFLSSTLKSLEEKDHIHRVLDKITDTLIHLMAKAGLTLQQQHQRLAQLLLILSHIRHMSNKGMEHLYSMKCKNVVPLYDLLLEMLDAHRLHAPTSRGGASVEETDQSHLATAGSTSSHSLQKYYITGEAEGFPATV
notes: Expressed in COS-7 cells; also called FLAG-ERα; estrogen receptor α; not shown: FLAG tag
